{"source": "the DeepSol protein solubility set"}
{"assay": "soluble on expression in E. coli; label from the status in PepcDB or PDB records"}
{"sequence": "MGSDKIHHHHHHMEGNLKHNNGYCVICEKEATFIEHNDWLRDHYLCSTCHSIPRQRALIHVLNTFFPKWDSYHIHESSPGGITTQLLIKNCKNYTYSQYFKNYPLGQYFQGIRCENLENMTFQDESFDLFITQDVFEHVMEPNKAFKEIERVLKPGGAHVFTVPWYHTLPKTLQRARINEDGIEYIEEPIYHGNPIDENGSLVTFDWGQDMIEYIYTHANMYTLVYLQKDKSLGLDAEFLHVFISRKQENNF", "soluble on expression in E. coli": "not soluble"}
{"sequence": "MGSDKIHHHHHHMEIKILVDNTAKGKFLAQSGFSAIIKDEDSKILFDCGQNAHVFENNLKLMGEDDDFDAVIFSHGHYDHTDGFNYFIEKYGENLDVPIYIHKSAFVDRYHGERYIGIDENIKNFLKNYKNLKLIEDPFKISENLIISGTIPRTNFYERENFEMIENGQKVDDIIIDDMFVIVKDIIISGCTHSGLINCITHAKTLKEVNGIIGGFHMGTASENYINQVKNYLKTQNFRLVSPVHCTGFNATKELSDISGFKFGHVGSVFEI", "soluble on expression in E. coli": "not soluble"}
{"sequence": "MGSDKIHHHHHHMEISFTRVALLAAALFFVGCDQKPQPAKTHATEVTVLEGKTMGTFWRASIPGIDAKRSAELKEKIQTQLDADDQLLSTYKKDSALMRFNDSQSLSPWPVSEAMADIVTTSLRIGAKTDGAMDITVGPLVNLWGFGPEQQPVQIPSQEQIDAMKAKTGLQHLTVINQSHQQYLQKDLPDLYVDLSTVGEGYAADHLARLMEQEGISRYLVSVGGALNSRGMNGEGLPWRVAIQKPTDKENAVQAVVDINGHGISTSGSYRNYYELDGKRLSHVIDPQTGRPIEHNLVSVTVIAPTALEADAWDTGLMVLGPEKAKEVVRREGLAVYMITKEGDSFKTWMSPQFKSFLVSEKN", "soluble on expression in E. coli": "not soluble"}
{"sequence": "MGSDKIHHHHHHMEKGSIKILGEGFISSGEYENIKIVGSSKSKGNVKSNEVKVLGDAKFEGDINIKNFVVNGKTIIRGNLKAERVRVNGQLNIEGDAEIDDLVITAQQKVDGKLKCNNVTIRGQLSVNENMYAQDIKIYGEMRNKSNIECEDIKVYGVIKCDGLLNGENIYVYSGGGSYCKEIGATNIKIGRSKDAFSLIKIINIFSGKFKCNLIEGDTIELEDASIKDIRGKSISLVDNCDVGNIEYSDNLSVSDNSTVKNSIKVG", "soluble on expression in E. coli": "not soluble"}
{"sequence": "MGSDKIHHHHHHMEKIAVAENLRAYYFIKSGDKTTSIRAVDNVSLHFFENEVYGIAGESGCGKSTLLKVLFGEIKPPLKLVDGEVVFKLDGEEYRINSMSLDQLKKIRWKYVSYVPQGSMSVLNPVRKIRRIFLDVIEEHTSMSREEAFSRIESYFEALGLPVRVLDSYPHQLSGGMRQRVTIALATVLNPKVIFADEPTTALDVVVQRGVIQLLKKIHKEQKNTLVIVTHDMGVHAHLATRIGVMYAGRLIEEAETHEIFKNPLHPYTRFLINSLPRFGDRSRKEGTPGSPPSLANLPSGCPFHPRCPIADQICMEMEPDLIEVARNHKVACWKVGVER", "soluble on expression in E. coli": "not soluble"}
{"sequence": "MGSDKIHHHHHHMEKIVQTAGRNALGEFAPEFAHFNDDVLFGENWNNQDIDVKTRSIITVVALMASGITDSSLIYHLQNAKEHGVTQKEIAAVITHVAFYAGWPKAWAVFNLAKEVWEAGEGDLPYEEEAMRAHAKEMAFPIGAPNDGFAQYFSGRSFLAPISTSQIGIFNVTFEPGCRNNWHIHHAKSGGGQILVCVAGRGYYQEEGKEAVEMKPGDCINIPTGVKHWHGAAPDEWFSHLAIEVPGVDCSNEWCEAVSEKEYAGLR", "soluble on expression in E. coli": "not soluble"}
{"sequence": "MGSDKIHHHHHHMEKVKVKNPIVELDGDEMARVMWKMIKEKLILPYLDIQLVYFDLGIKKRDETDDQITIEAAKAIKKYGVGVKCATITPDAERVKEYNLKKAWKSPNATIRAYLDGTVFRKPIMVKNVPPLVKRWKKPIIIGRHAYGDIYNAVEAKVEGPAEVELVVRNKENKTLLVHKFEGNGVVMAMHNLEKSIRSFAQSCINYAISEKVDIWFATKDTISKVYHAYFKDIFQEEVDKRKEELEKAGVNYRYMLIDDAAAQILRSEGGMLWACMNYEGDIMSDMIASGFGSLGLMTSVLVSPDGVYEFEAAHGTVRRHYYRYLKGEKTSTNPTASIFAWTGAIRKRGELDGTPEVCEFADKLEKAVINTIESGVITKDLQPFTEPPIDKYVTLEEFIDEVKKNLEKLL", "soluble on expression in E. coli": "not soluble"}
{"sequence": "MGSDKIHHHHHHMENESKLVEVDEKHLQFRVAREAFVSEQILSGEYEKIFDRCWLYVGHVSEFSKPGDFVTRTIARRNLLVTMGTDNRINAFFNTCPHRGATVCRDRAGNSKNFQCFYHGWVFGCDGNLKSQPGKDRYCADFIASGAGNLVSVPRFDIYAGFCFVSFNAEVEPLPDYLAGAKEYLDLVSRYSESGMAISSGTQEYAIRANWKLLVENSVDGYHAVSTHATYLDYLKNTNGSLSSTKLEGTSYDLGNGHAVLEYTAPWGRPIASWVPLWGEQGKKEIDQIYARLVELHGEDMADRMAHKNRNLLIFPNLVVNDIMAITVRTFYPQAPNYMLVNGWSLAPREESEWAKKFRLSNFLEFLGPGGFATPDDVEALESCQNGFSNYRLVPWSDISKGMGKASPNYDDELQMRAFWTRWNQYISGSPSPQATIRRLPSATAA", "soluble on expression in E. coli": "not soluble"}
{"sequence": "MGSDKIHHHHHHMEPVYFTSPTRGRLTEDEMFADMMQFVDANPEAQYKIIIGSDSQARVRTCFVTAVIVHQVGRGARYYYRKKYQRKITSLRQKIFYETALSLETASFIAQRLAANGHADLNVEIHLDIGPNGETRDLIREIVGMVVGSGFAAKIKPYSCGASKVADKYTKSG", "soluble on expression in E. coli": "not soluble"}
{"sequence": "MGSDKIHHHHHHMERLCEQVRKVRRWLIDQPFDGILLSEQKNIAWLTGARAYVNLATERSIVFFLITESETVMYCSNIEKERLLAEEIGDTVGEIHVFPWYDPLLAESITQEQSKIGKVVLDREVESAFKAVRSALSPSQVAGYRQLGKLSAAAVEETALGLQRGETELEIAGRLANAAIKRGIEPVVNLVAVDDRVSAYRHPLPTDKRLDRYVMIVLSGRRNGQYISLTRLVHFGVIPIDLKKKHAAVCTIDSRLMHHTRVGQSMGDLFKEMKAAYATVGYLHEWKNHHQGGLTGYVGRERLLQPDAQELIQANEVYAWNPSITGTKSEDTILVTESGPEILTLGKKFPLMTVTVAGCTYERPDILGRNDG", "soluble on expression in E. coli": "not soluble"}
{"sequence": "MGSDKIHHHHHHMERTSDYWFMIEPYVHINIANGYMLLYNTLDKETIISNNEKVINLLEELLQDENCGVTILKNEQYRQNDIHSFITNLREKYMGDIIDISLSKGKPIQILPHTNFCNKRNEKYNFIKNANLLHFLNEIIIHLDHILDQDKLIDYLQSMPDNITYSISGDLKHIAKFDKLVDFLNQYNSSKKIICNYINFAIPASVCKNIFLYKIHIHFPIDIKQLIITTQSLKDQNNLFELIFDIASLDDYLKAWEIIEEYQIDKYQFNPIYTGYNIDFFKENVFLKKSDILSTSMSIKDFFIKQMINNNDFGKINIMPNGDVHSNINYPALGNICTHSIFELIQKEIEEGKSWLRVRNQEPCNACIYQWLCPSPSDYEIMIGQTNLCHVNIHNPNCENL", "soluble on expression in E. coli": "not soluble"}
{"sequence": "MGSDKIHHHHHHMESLSEGTTAGYQQIHDGIIHLVDSARTETVRSVNALMTATYQEIGRRIVEFEQGGEARAAYGAQLIKRLSKDLCLRYKRGFSAKNLRQMRLFYLFFQHVEIHQTMSGELTPLGIPQTPSAEFPSAKIWQTLSAKSFPLPRSTYVRLLSVKNADARSFYEKETLRCGWSVRQLERQIATQFYERTLLSHDKSAMLQQHAPAETHILPQQAIRDPFVLEFLELKDEYSESDFEEALINHLMDFMLELGDDFAFVGRQRRLRIDDNWFRVDLLFFHRRLRCLLIVDLKVGKFSYSDAGQMNMYLNYAKEHWTLPDENPPIGLVLCAEKGAGEAHYALAGLPNTVLASEYKMQLPDEKRLADELVRTQAVLEEGYRRR", "soluble on expression in E. coli": "not soluble"}
{"sequence": "MGSDKIHHHHHHMESQNVSFRVAREDLVTAVAWVARNLPTKPTQPVLRAMLITADDEGLELAGYDYDVSTRVRLSAEVSQPGRIAVAGKLLSEITGSLPNKPVDFRIDGSKAFVTCGSSRFELPLIPLDDYPMLPKLPAGTGSINAKLFTEAVSQVASAAGKDDSLPMLTGVSMEIVGNQINLAATDRFRLALRTFEWEANDPELNVKLLIPARTLLDNARSLDSGLNDSIDIAVGTGDQVGREGLFGVHTDNRETTTRLLDADFPNIAPLLPKEHTAIASVEIAPLVDAIRRVSLVAERNAQIVLHFSEGQVILTAGATEAGHAEETLPCAFTGKELTIAFNPGYLKDGLSVVPTSRAVFGFTEPSRPAIMIPEPEEMPSANENGIFQTPDTYFTYLLMPVRLPG", "soluble on expression in E. coli": "not soluble"}
